Laboratory results published in IntAct's records for PubMed 18570893.

Target: call3_human CALML3 (UniProt P27482)
Sequence (P27482 whole entry): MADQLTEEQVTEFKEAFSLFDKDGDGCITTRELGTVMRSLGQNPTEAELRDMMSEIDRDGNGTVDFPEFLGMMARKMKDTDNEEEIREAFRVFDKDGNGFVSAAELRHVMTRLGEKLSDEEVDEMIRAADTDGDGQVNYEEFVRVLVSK

In the case of “Unconventional myosin-X (Homo sapiens), Q9HD67 F795A”, the “effect of a mutation on the interaction” value was “disrupting interaction”.
